Earlier results on one substance are cited in publication PMC7490560.

As a reminder, the Kd is the free concentration of one partner at which half of the binding sites on the other are occupied at equilibrium, for simple one-to-one binding.

Several values for one entry are separate records, joined by “and”; a condition that tells them apart may be missing. Equal entries are not always repeated.

In this data set the target is KEAP1 (Homo sapiens) (UniProt Q14145).
Chain of KEAP1 (Homo sapiens) (Q14145 whole entry): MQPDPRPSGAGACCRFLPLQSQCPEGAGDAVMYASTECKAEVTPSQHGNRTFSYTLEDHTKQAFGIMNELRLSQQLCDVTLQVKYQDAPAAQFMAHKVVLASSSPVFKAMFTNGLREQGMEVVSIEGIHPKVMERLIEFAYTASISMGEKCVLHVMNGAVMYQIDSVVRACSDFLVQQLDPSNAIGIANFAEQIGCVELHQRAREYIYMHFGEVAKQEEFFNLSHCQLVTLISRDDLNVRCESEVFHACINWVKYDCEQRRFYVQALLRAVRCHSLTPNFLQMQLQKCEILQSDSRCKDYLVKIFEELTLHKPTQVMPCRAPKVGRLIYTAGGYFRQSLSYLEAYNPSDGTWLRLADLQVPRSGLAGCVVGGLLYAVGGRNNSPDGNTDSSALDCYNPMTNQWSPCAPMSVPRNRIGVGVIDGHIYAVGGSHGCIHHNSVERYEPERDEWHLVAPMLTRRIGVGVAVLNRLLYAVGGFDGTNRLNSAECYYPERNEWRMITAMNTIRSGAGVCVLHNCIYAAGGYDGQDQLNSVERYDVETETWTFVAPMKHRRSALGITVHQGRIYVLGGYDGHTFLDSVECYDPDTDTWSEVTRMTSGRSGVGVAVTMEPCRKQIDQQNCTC

Chain of NRF2 (Q16236 whole entry): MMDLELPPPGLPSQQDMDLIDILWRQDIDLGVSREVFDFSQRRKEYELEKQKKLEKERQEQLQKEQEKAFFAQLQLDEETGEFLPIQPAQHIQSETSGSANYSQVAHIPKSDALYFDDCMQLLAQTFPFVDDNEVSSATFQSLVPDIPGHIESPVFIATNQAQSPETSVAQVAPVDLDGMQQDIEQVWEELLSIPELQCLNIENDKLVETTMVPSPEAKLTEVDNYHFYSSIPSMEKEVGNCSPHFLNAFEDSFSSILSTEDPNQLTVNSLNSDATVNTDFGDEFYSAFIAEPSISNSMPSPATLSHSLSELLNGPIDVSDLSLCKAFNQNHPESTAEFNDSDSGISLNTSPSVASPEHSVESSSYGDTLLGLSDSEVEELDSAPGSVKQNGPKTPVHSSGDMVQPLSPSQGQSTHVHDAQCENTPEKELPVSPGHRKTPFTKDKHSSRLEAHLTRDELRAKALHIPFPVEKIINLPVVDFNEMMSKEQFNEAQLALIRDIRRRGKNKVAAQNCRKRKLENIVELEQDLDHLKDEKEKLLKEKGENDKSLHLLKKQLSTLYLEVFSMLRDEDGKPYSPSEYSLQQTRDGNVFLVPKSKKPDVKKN

Regarding NRF2 (from UniProt Q16236), the Kd was 580 nM and 167 nM.
